{
  "source": "paper PMC12818389",
  "about": "“The Functional Epididymal Amyloid Cystatin‐Related Epididymal Spermatogenic (CRES) is a Component of the Mammalian Brain Extracellular Matrix” (Journal of Neuroscience Research, 2026)",
  "proteins": {"B1": {"name": "Tag-less full-length mouse CRES C48A protein (recombinant) (natural protein, UniProt P32766 20-142, looked up)", "chain": "VGVDQSKNEVKAQNYFGSINISNANVKQAVWFAMKEYNKESEDKYVFLVDKILHAKLQITDRMEYQIDVQISRSNCKKPLNNTENCIPQKKPELEKKMSCSFLVGALPWNGEFNLLSKECKDV", "notes": "Cystatin-related epididymal spermatogenic protein (CRES, Cst8), mouse, called tag-less and full-length; C48A introduced to prevent inappropriate disulfide bond formation; a recombinant form without the signal peptide is possible (surmise); also called CRES monomer; recombinant CRES protein"}},
  "molecular_target": "the molecule itself",
  "test": "SDS-PAGE and Western blot of SDS-resistant high molecular weight forms; 5 ug recombinant CRES monomer alone, 50 mM sodium phosphate pH 8, room temperature 3 h with shaking and silicon beads, no ThT; 25,000 x g pellet in Laemmli buffer, Western blot for CRES",
  "data": [
    {"protein": "B1", "values": [
      {"measurement": "binding result", "result": "binds"}
    ]}
  ]
}
